# Laboratory results reported in article PMC7846606.
# Target: PRC2:EZH1 (EZH1, EED, SUZ12, RBAP48, AEBP2 and JARID2) (UniProt Q92800)
# Assay: SEC-MALS; TSKgel G4000SWxl, 20 mM Tris-HCl pH 7.5, 300 mM NaCl, 1 mM DTT, 0.5 ml/min; complexes at 1.25 mg/ml, 30 μl injected
substance,measurement,value
"PRC2:EZH1 (EZH1, EED, SUZ12, RBAP48, AEBP2 and JARID2) (from UniProt Q92800 1-747; Q15022 1-739; O75530 1-441; Q09028 1-425; Q6ZN18 209-503; Q92833 1-1246) (complex)",stoichiometry N,2
